Assay results as given in patent US20110145940, “TAL EFFECTOR-MEDIATED DNA MODIFICATION” (published 2011).

Target: AvrBs3 TALEN (BamHI fragment-FokI) (Xanthomonas campestris pv. vesicatoria, UniProt P14727 SEQ:26-1141)
Test: cell_activity; yeast lacZ SSA assay, 18 bp spacer; optima 15 and 21 bp
Details: tags: FokI catalytic domain fusion, N-terminal NLS; chain copies: 2 (inferred); two sites in inverted orientation around spacer

B1: AvrBs3 site (dsDNA)
DNA 1: ATATAAACCTAACCATCC
DNA 2: GGATGGTTAGGTTTATAT
For B1, the activity was 15.8 fold over target-only control.
